The supplement of paper PMC6757056
± gives the standard deviation of the averaged measurements.

B1: library; a variant is named by its letters at N, in order (parent)
chain: GCUGUCACCGAGAAACUGUGAAGUAUAUCUUAAACCUGGGCACUUAAAAGAUAUAUGGAGUUAGUAGUGCAACCUGCUCGGUCUGAUGAGUCCNNNNNNGGACGAAACAGC

How the values were obtained:
cyclic di-GMP [1] = variants of: B1; assay: normalized RNA/DNA level without ligand (relative to sTRSVctl = 100) (log10 (% of sTRSVctl)); HEK293T; ligand: cyclic di-GMP (c-di-GMP-II aptamer); higher = less ribozyme self-cleavage, higher mRNA level; conditions: reporter: mCherry (pCS4076), ligand present: no
Outline: (§1)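 HEK293T cells received ligand, where used, 1 h before being transfected with 4 µg per 6-well well of library plasmids encoding reporter-linked ribozyme switches. After 72 h, RNA was extracted with EDTA and sequenced. RNA level was derived from RNA reads per DNA read, normalized to a spiked-in non-cleaving sequence or the top sequences, then scaled and log-transformed. Values were ×100 then log10, the top set was 25 sequences, and the minimum was 100 DNA reads.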

cyclic di-GMP [2] = variants of: B1; assay: normalized RNA/DNA level with ligand (relative to sTRSVctl = 100) (log10 (% of sTRSVctl)); HEK293T; ligand: cyclic di-GMP (c-di-GMP-II aptamer); ligand concentration (+) RNA-Seq: 1 mM; higher = less ribozyme self-cleavage, higher mRNA level; conditions: reporter: mCherry (pCS4076), ligand present: yes
Outline: as §1

Row | Variant | normalized RNA/DNA level without ligand (log10) (cyclic di-GMP [1]) | normalized RNA/DNA level with ligand (log10) (cyclic di-GMP [2])
1 | AAAUUA | 1.54 ± 0.04 | 1.75 ± 0.11
2 | AAAUUU | 1.67 ± 0.067 | 1.82 ± 0.17
3 | AAAUUC | 1.6899 ± 0.00096 | 1.85 ± 0.11
4 | GAAGAC | 1.563 ± 0.0055 | 1.76 ± 0.12
5 | GAAGAG | 1.5 ± 0.14 | 1.71 ± 0.094
6 | UACACG | 1.76 ± 0.029 | 1.86 ± 0.088
7 | UACACU | 1.714 ± 0.014 | 1.84 ± 0.059
8 | UACACA | 1.7 ± 0.041 | 1.84 ± 0.083
9 | UACACC | 1.6664 ± 0.0013 | 1.8 ± 0.1
10 | UACAGC | 1.619 ± 0.0088 | 1.77 ± 0.11
11 | UACAGG | 1.65 ± 0.044 | 1.82 ± 0.081
12 | UACAGU | 1.62 ± 0.021 | 1.8 ± 0.069
13 | AACCAC | 1.668 ± 0.0054 | 1.81 ± 0.11
14 | AACCAG | 1.6 ± 0.035 | 1.73 ± 0.13
15 | UACCCG | 1.766 ± 0.014 | 1.9 ± 0.063
16 | UACCCC | 1.7914 ± 0.0016 | 1.89 ± 0.11
17 | GACCCU | 1.779 ± 0.0057 | 1.87 ± 0.089
18 | GACCCA | 1.75 ± 0.02 | 1.85 ± 0.093
19 | GACCCC | 1.8 ± 0.055 | 1.88 ± 0.14
20 | GACCCG | 1.7824 ± 0.00091 | 1.86 ± 0.11
21 | AAAUAG | 1.54 ± 0.025 | 1.7 ± 0.16
22 | AAAUAC | 1.665 ± 0.0071 | 1.8 ± 0.11
23 | UAAGUC | 1.663 ± 0.0049 | 1.8 ± 0.11

Row | Variant | normalized RNA/DNA level without ligand (log10) (cyclic di-GMP [1]) | normalized RNA/DNA level with ligand (log10) (cyclic di-GMP [2])
24 | GAAUUA | 1.55 ± 0.026 | 1.74 ± 0.097
25 | GAAUUU | 1.652 ± 0.015 | 1.85 ± 0.12
26 | GAAUUC | 1.8 ± 0.021 | 1.92 ± 0.09
27 | UACCAC | 1.698 ± 0.0019 | 1.82 ± 0.11
28 | UACCAA | 1.66 ± 0.022 | 1.8 ± 0.12
29 | UACCAG | 1.701 ± 0.003 | 1.83 ± 0.11
30 | UACCGU | 1.59 ± 0.027 | 1.75 ± 0.1
31 | UACCGC | 1.73 ± 0.031 | 1.86 ± 0.14
32 | UACCGA | 1.56 ± 0.058 | 1.77 ± 0.068
33 | UACCGG | 1.68 ± 0.025 | 1.87 ± 0.11
34 | CAAUAG | 1.73 ± 0.024 | 1.83 ± 0.14
35 | CAAUAC | 1.592 ± 0.015 | 1.73 ± 0.13
36 | AACACG | 1.55 ± 0.073 | 1.74 ± 0.088
37 | AACACC | 1.56 ± 0.007 | 1.73 ± 0.12
38 | AACGUC | 1.66 ± 0.024 | 1.78 ± 0.11
39 | AACGUA | 1.51 ± 0.024 | 1.73 ± 0.1
40 | UACAAA | 1.65 ± 0.041 | 1.8 ± 0.057
41 | UACAAG | 1.69 ± 0.02 | 1.8 ± 0.12
42 | UACAAU | 1.64 ± 0.017 | 1.77 ± 0.13
43 | GACCUC | 1.72 ± 0.047 | 1.86 ± 0.12
44 | GACCUU | 1.69 ± 0.0029 | 1.86 ± 0.13
45 | GAAUGU | 1.579 ± 0.014 | 1.76 ± 0.07
46 | CAAGAC | 1.64 ± 0.06 | 1.8 ± 0.082

Row | Variant | normalized RNA/DNA level without ligand (log10) (cyclic di-GMP [1]) | normalized RNA/DNA level with ligand (log10) (cyclic di-GMP [2])
47 | CAAGAG | 1.6 ± 0.023 | 1.78 ± 0.14
48 | CAAGAU | 1.6 ± 0.048 | 1.79 ± 0.086
49 | CAAUUC | 1.66 ± 0.019 | 1.82 ± 0.065
50 | CAAUUG | 1.733 ± 0.0033 | 1.87 ± 0.065
51 | CAAUUU | 1.51 ± 0.095 | 1.71 ± 0.081
52 | CAAUUA | 1.32 ± 0.1 | 1.53 ± 0.05
53 | AACGCA | 1.67 ± 0.024 | 1.83 ± 0.076
54 | AACGCG | 1.702 ± 0.008 | 1.82 ± 0.12
55 | CACCUC | 1.704 ± 0.014 | 1.87 ± 0.098
56 | CACCUG | 1.76 ± 0.023 | 1.85 ± 0.06
57 | AAAGGC | 1.6 ± 0.044 | 1.77 ± 0.14
58 | CACGGU | 1.685 ± 0.015 | 1.84 ± 0.064
59 | CACGGG | 1.63 ± 0.04 | 1.8 ± 0.06
60 | CACGGC | 1.747 ± 0.0044 | 1.89 ± 0.11
61 | GACGUA | 1.665 ± 0.013 | 1.8 ± 0.085
62 | GACGUC | 1.671 ± 0.014 | 1.87 ± 0.1
63 | UAAGGC | 1.66 ± 0.058 | 1.81 ± 0.056
64 | UAAGGG | 1.58 ± 0.031 | 1.73 ± 0.13
65 | UAAGGU | 1.579 ± 0.013 | 1.77 ± 0.073
66 | GACGAC | 1.608 ± 0.0074 | 1.78 ± 0.13
67 | GACGAG | 1.56 ± 0.091 | 1.71 ± 0.071
68 | UAAUAA | 1.66 ± 0.018 | 1.8 ± 0.085
69 | UAAUAU | 1.64 ± 0.017 | 1.78 ± 0.11

Row | Variant | normalized RNA/DNA level without ligand (log10) (cyclic di-GMP [1]) | normalized RNA/DNA level with ligand (log10) (cyclic di-GMP [2])
70 | UAAUAC | 1.68 ± 0.013 | 1.81 ± 0.075
71 | AACAUU | 1.7 ± 0.037 | 1.84 ± 0.067
72 | AACAUA | 1.52 ± 0.076 | 1.74 ± 0.12
73 | CACAUC | 1.682 ± 0.0036 | 1.74 ± 0.034
74 | CACAUG | 1.717 ± 0.01 | 1.84 ± 0.095
75 | CACGUC | 1.73 ± 0.075 | 1.87 ± 0.11
76 | CACGUA | 1.504 ± 0.014 | 1.7 ± 0.056
77 | CAAGCA | 1.63 ± 0.035 | 1.76 ± 0.11
78 | CAAGCU | 1.67 ± 0.021 | 1.83 ± 0.071
79 | CAAGCC | 1.76 ± 0.022 | 1.85 ± 0.087
80 | CAAGCG | 1.74 ± 0.052 | 1.85 ± 0.11
81 | AAAUCG | 1.54 ± 0.12 | 1.73 ± 0.061
82 | AAAUCA | 1.595 ± 0.0024 | 1.77 ± 0.098
83 | AAAUCU | 1.7 ± 0.026 | 1.82 ± 0.13
84 | AAAUCC | 1.71 ± 0.049 | 1.83 ± 0.091
85 | AAAGAG | 1.44 ± 0.097 | 1.63 ± 0.1
86 | AAAGAA | 1.34 ± 0.14 | 1.55 ± 0.1
87 | GAACGG | 1.703 ± 0.0094 | 1.78 ± 0.082
88 | GAACGC | 1.64 ± 0.07 | 1.78 ± 0.058
89 | UAAUGG | 1.676 ± 0.013 | 1.81 ± 0.087
90 | UAAUGU | 1.652 ± 0.0062 | 1.78 ± 0.087
91 | GAACUU | 1.68 ± 0.051 | 1.83 ± 0.096
92 | GAACUC | 1.725 ± 0.004 | 1.85 ± 0.1

Row | Variant | normalized RNA/DNA level without ligand (log10) (cyclic di-GMP [1]) | normalized RNA/DNA level with ligand (log10) (cyclic di-GMP [2])
93 | GAACUG | 1.66 ± 0.059 | 1.75 ± 0.089
94 | CAAUGG | 1.664 ± 0.0083 | 1.8 ± 0.087
95 | CAAUGC | 1.76 ± 0.076 | 1.83 ± 0.14
96 | CAAUGA | 1.53 ± 0.056 | 1.74 ± 0.12
97 | CACCAA | 1.4 ± 0.088 | 1.57 ± 0.1
98 | CACCAG | 1.74 ± 0.03 | 1.88 ± 0.11
99 | CACCAC | 1.675 ± 0.0098 | 1.85 ± 0.096
100 | CACCAU | 1.593 ± 0.0031 | 1.75 ± 0.11
101 | GAAUAC | 1.62 ± 0.026 | 1.78 ± 0.095
102 | GAAUAU | 1.59 ± 0.039 | 1.79 ± 0.077
103 | UAAGCU | 1.7 ± 0.031 | 1.83 ± 0.097
104 | UAAGCC | 1.78 ± 0.024 | 1.88 ± 0.091
105 | UAAGCG | 1.75 ± 0.023 | 1.86 ± 0.089
106 | UAAGCA | 1.75 ± 0.018 | 1.87 ± 0.082
107 | UACCUG | 1.724 ± 0.0039 | 1.87 ± 0.091
108 | UACCUU | 1.637 ± 0.0055 | 1.82 ± 0.12
109 | UACCUC | 1.79 ± 0.0062 | 1.93 ± 0.093
110 | UACCUA | 1.68 ± 0.018 | 1.82 ± 0.081
111 | UAACCU | 1.71 ± 0.031 | 1.86 ± 0.072
112 | AACGGC | 1.68 ± 0.017 | 1.8 ± 0.071
113 | AACGGG | 1.51 ± 0.084 | 1.68 ± 0.098
114 | AACGGU | 1.52 ± 0.049 | 1.77 ± 0.1
115 | GAAGGU | 1.58 ± 0.08 | 1.77 ± 0.052
